The values below come from article PMC10498682, “Selection of optimised ligands by fluorescence-activated bead sorting†”.

The chains are these.
B1: MinE07UA-Biotin (structured_RNA)
RNA: CGGAUUUAAUCGCCGUAGAAAAGCAUGUCAAAGCCGGAACCGUCC
modifications: 2'-F on all C and U; 5-phenyl-U at 6,7,43 (U2,U3,U8); 5-iodo-U at 16 (U5); lacks 5' GGA
B2: MinE07UC-Biotin (structured_RNA)
RNA: GGAUUUAAUCGCCGUAGAAAAGCAUGUCAAAGCCGGAACCGUCC
modifications: 2'-F on all C and U; 5-vinyl-U at 4,27 (U1,U7); 5-phenyl-U at 25 (U6); lacks 5' GGAC

The target in the first data set is EGFR extracellular domain, Fc fusion (EGFR-Fc) (UniProt P00533 25-644). The data set is described as follows: ELISA-type plate assay; EGFR-Fc on protein A 96-well plates, biotinylated aptamer, streptavidin-AP chemiluminescence, n = 3; buffer, salt, pH and temperature not in the material. Conditions: protein: recombinant; tags: Fc; chain copies: 2; label: 5'-biotin; single strand. In general terms: An ELISA detects its analyte on a solid surface through an enzyme-linked reagent.
In the case of GGACGGAUUUAAUCGCCGUAGAAAAGCAUGUCAAAGCCGGAACCGUCC (structured_RNA, 2'-F on all C and U; 5-phenyl on all 8 U (8,9,10,13,19,29,31,46)) [MinE07-U-Ph-Biotin], the dissociation constant (Kd) – broadly, a measure of binding affinity in units of concentration – was 3.59 ± 0.82 nM.
The same measure, in the same setting: with GGACGGAUUUAAUCGCCGUAGAAAAGCAUGUCAAAGCCGGAACCGUCC (structured_RNA, 2'-F on all C and U; 5-vinyl on all 8 U (8,9,10,13,19,29,31,46)) [MinE07-U-Vi-Biotin] the figure was 4.62 ± 0.48 nM.
On the same count and under the same terms, with GGACGGAUUUAAUCGCCGUAGAAAAGCAUGUCAAAGCCGGAACCGUCC (structured_RNA, 2'-F on all C and U; 5-iodo on all 8 U (8,9,10,13,19,29,31,46)) [MinE07-U-I-Biotin] the figure was 2.05 ± 0.26 nM; with GGACGGAUUUAAUCGCCGUAGAAAAGCAUGUCAAAGCCGGAACCGUCC (structured_RNA, 2'-F on all C and U; 5-vinyl-U at 8,31 (U1,U7); 5-phenyl-U at 29 (U6)) [MinE07UC'-Biotin], 1.11 ± 0.45 nM.
On the same count and under the same terms, with GGACGGAUUUAAUCGCCGUAGAAAAGCAUGUCAAAGCCGGAACCGUCC (structured_RNA, 2'-F on all C and U; 5-phenyl-U at 9,10,19 (U2,U3,U5); 5-iodo-U at 13 (U4)) [MinE07UB-Biotin] the figure was 1.47 ± 0.54 nM; with GGACGGAUUUAAUCGCCGUAGAAAAGCAUGUCAAAGCCGGAACCGUCC (structured_RNA, 2'-F on all C and U; 5-phenyl-U at 9,10,46 (U2,U3,U8); 5-iodo-U at 19 (U5)) [MinE07UA'-Biotin], 3.39 ± 0.71 nM.
As to B1, the Kd came to 1.53 ± 0.13 nM.
Take B2: the dissociation constant Kd is 1.23 ± 0.1 nM.

The data set is the same for the next values; noted with them: protein: recombinant; tags: Fc; chain copies: 2; label: 5'-biotin; single strand; 5' and 3' ends base pair, three loops (predicted).
Turning to GGACGGAUUUAAUCGCCGUAGAAAAGCAUGUCAAAGCCGGAACCGUCC (structured_RNA, 2'-F on all C and U; A and G ribo) [MinE07-Biotin], the Kd is 3.7 ± 0.38 nM.
